Experimental data from US20250339531A1, “DUX4 POLYPEPTIDES AND NUCLEIC ACIDS FOR TREATING INFLAMMATORY AND AUTOIMMUNE CONDITIONS” (Fred Hutchinson Cancer Center, priority 2021, published 2025).

Tested on: proteins that co-immunoprecipitated with DUX4-CTD constructs expressed in MB135 myoblasts
Test: LC-MS of proteins co-immunoprecipitated with DUX4-CTD (Table 1) and western validation
Type: binding, human
Parameters: key to 4. mL1dL2 + Dox + IFNG / 4. + IFNG mix / 4. longCTD + Dox + IFNG / 3. + IFNg + Dox longCTD / 3. + Dox longCTD / 3. + IFNG longCTD: peptide-spectrum matches (PSMs) per protein
Conditions: for 4. longCTD + Dox + IFNG: LC-MS counts of the listed protein co-immunoprecipitated with DUX4-CTD bait longCTD, experiment 4, Dox + IFNG; for 3. + IFNg + Dox longCTD: experiment 3, IFNg + Dox; for SUM of PSMS: sum over all samples; for 3. + Dox longCTD: experiment 3, Dox only
Procedure, shortened: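 Two independent experiments compared uninduced, doxycycline and doxycycline+IFNG MB135iDUX4-CTD (plus MB135iDUX4mL1dL2) myoblasts. Anti-FLAG pulldowns (3 h, 4 °C) were eluted in LDS buffer for western validation or with FLAG peptide for trypsin digestion and Orbitrap LC-MS; hits needed ≥2 PSMs in both experiments, ranked by total PSMs.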

B1: Q16576 (protein, UniProt Q16576 1-425, looked up)
chain: MASKEMFEDTVEERVINEEYKIWKKNTPFLYDLVMTHALQWPSLTVQWLPEVTKPEGKDYALHWLVLGTHTSDEQNHLVVARVHIPNDDAQFDASHCDSDKGEFGGFGSVTGKIECEIKINHEGEVNRARYMPQNPHIIATKTPSSDVLVFDYTKHPAKPDPSGECNPDLRLRGHQKEGYGLSWNSNLSGHLLSASDDHTVCLWDINAGPKEGKIVDAKAIFTGHSAVVEDVAWHLLHESLFGSVADDQKLMIWDTRSNTTSKPSHLVDAHTAEVNCLSFNPYSEFILATGSADKTVALWDLRNLKLKLHTFESHKDEIFQVHWSPHNETILASSGTDRRLNVWDLSKIGEEQSAEDAEDGPPELLFIHGGHTAKISDFSWNPNEPWVICSVSEDNIMQIWQMAENIYNDEESDVTTSELEGQGS
modifications: full-length
4. longCTD + Dox + IFNG: 5 | 3. + IFNg + Dox longCTD (bait longCTD): 4 | SUM of PSMS: 25

B2: O14929 (protein, UniProt O14929 1-419, looked up)
chain: MAGFGAMEKFLVEYKSAVEKKLAEYKCNTNTAIELKLVRFPEDLENDIRTFFPEYTHQLFGDDETAFGYKGLKILLYYIAGSLSTMFRVEYASKVDENFDCVEADDVEGKIRQIIPPGFCTNTNDFLSLLEKEVDFKPFGTLLHTYSVLSPTGGENFTFQIYKADMTCRGFREYHERLQTFLMWFIETASFIDVDDERWHYFLVFEKYNKDGATLFATVGYMTVYNYYVYPDKTRPRVSQMLILTPFQGQGHGAQLLETVHRYYTEFPTVLDITAEDPSKSYVKLRDFVLVKLCQDLPCFSREKLMQGFNEDMVIEAQQKFKINKQHARRVYEILRLLVTDMSDAEQYRSYRLDIKRRLISPYKKKQRDLAKMRKCLRPEELTNQMNQIEISMQHEQLEESFQELVEDYRRVIERLAQE
modifications: full-length
4. longCTD + Dox + IFNG: 9 | 3. + IFNg + Dox longCTD (bait longCTD): 3 | SUM of PSMS: 23

B3: P42224 (protein, UniProt P42224 1-750, looked up)
chain: MSQWYELQQLDSKFLEQVHQLYDDSFPMEIRQYLAQWLEKQDWEHAANDVSFATIRFHDLLSQLDDQYSRFSLENNFLLQHNIRKSKRNLQDNFQEDPIQMSMIIYSCLKEERKILENAQRFNQAQSGNIQSTVMLDKQKELDSKVRNVKDKVMCIEHEIKSLEDLQDEYDFKCKTLQNREHETNGVAKSDQKQEQLLLKKMYLMLDNKRKEVVHKIIELLNVTELTQNALINDELVEWKRRQQSACIGGPPNACLDQLQNWFTIVAESLQQVRQQLKKLEELEQKYTYEHDPITKNKQVLWDRTFSLFQQLIQSSFVVERQPCMPTHPQRPLVLKTGVQFTVKLRLLVKLQELNYNLKVKVLFDKDVNERNTVKGFRKFNILGTHTKVMNMEESTNGSLAAEFRHLQLKEQKNAGTRTNEGPLIVTEELHSLSFETQLCQPGLVIDLETTSLPVVVISNVSQLPSGWASILWYNMLVAEPRNLSFFLTPPCARWAQLSEVLSWQFSSVTKRGLNVDQLNMLGEKLLGPNASPDGLIPWTRFCKENINDKNFPFWLWIESILELIKKHLLPLWNDGCIMGFISKERERALLKDQQPGTFLLRFSESSREGAITFTWVERSQNGGEPDFHAVEPYTKKELSAVTFPDIIRNYKVMAAENIPENPLKYLYPNIDKDHAFGKYYSRPKEAPEPMELDGPKGTGYIKTELISVSEVHPSRLQTTDNLLPMSPEEFDEVSRIVGSVEFDSMMNTV
modifications: full-length
4. longCTD + Dox + IFNG: 19 | 3. + IFNg + Dox longCTD (bait longCTD): 3 | SUM of PSMS: 43

B4: P11802 (protein, UniProt P11802 1-303, looked up)
chain: MATSRYEPVAEIGVGAYGTVYKARDPHSGHFVALKSVRVPNGGGGGGGLPISTVREVALLRRLEAFEHPNVVRLMDVCATSRTDREIKVTLVFEHVDQDLRTYLDKAPPPGLPAETIKDLMRQFLRGLDFLHANCIVHRDLKPENILVTSGGTVKLADFGLARIYSYQMALTPVVVTLWYRAPEVLLQSTYATPVDMWSVGCIFAEMFRRKPLFCGNSEADQLGKIFDLIGLPPEDDWPRDVSLPRGAFPPRGPRPVQSVVPEMEESGAQLLLEMLTFNPHKRISAFRALQHSYLHKDEGNPE
modifications: full-length
4. longCTD + Dox + IFNG: 11 | 3. + Dox longCTD (bait longCTD): 1 | 3. + IFNg + Dox longCTD (bait longCTD): 1 | SUM of PSMS: 16

B5: P13489 (protein, UniProt P13489 1-461, looked up)
chain: MSLDIQSLDIQCEELSDARWAELLPLLQQCQVVRLDDCGLTEARCKDISSALRVNPALAELNLRSNELGDVGVHCVLQGLQTPSCKIQKLSLQNCCLTGAGCGVLSSTLRTLPTLQELHLSDNLLGDAGLQLLCEGLLDPQCRLEKLQLEYCSLSAASCEPLASVLRAKPDFKELTVSNNDINEAGVRVLCQGLKDSPCQLEALKLESCGVTSDNCRDLCGIVASKASLRELALGSNKLGDVGMAELCPGLLHPSSRLRTLWIWECGITAKGCGDLCRVLRAKESLKELSLAGNELGDEGARLLCETLLEPGCQLESLWVKSCSFTAACCSHFSSVLAQNRFLLELQISNNRLEDAGVRELCQGLGQPGSVLRVLWLADCDVSDSSCSSLAATLLANHSLRELDLSNNCLGDAGILQLVESVRQPGCLLEQLVLYDIYWSEEMEDRLQALEKDKPSLRVIS
modifications: full-length
4. longCTD + Dox + IFNG: 4 | 3. + IFNG longCTD (bait longCTD, experiment 3, IFNG only, no doxycycline (bait at background level)): 1 | SUM of PSMS: 15

B6: Q15393 (protein, UniProt Q15393 1-1217, looked up)
chain: MFLYNLTLQRATGISFAIHGNFSGTKQQEIVVSRGKILELLRPDPNTGKVHTLLTVEVFGVIRSLMAFRLTGGTKDYIVVGSDSGRIVILEYQPSKNMFEKIHQETFGKSGCRRIVPGQFLAVDPKGRAVMISAIEKQKLVYILNRDAAARLTISSPLEAHKANTLVYHVVGVDVGFENPMFACLEMDYEEADNDPTGEAAANTQQTLTFYELDLGLNHVVRKYSEPLEEHGNFLITVPGGSDGPSGVLICSENYITYKNFGDQPDIRCPIPRRRNDLDDPERGMIFVCSATHKTKSMFFFLAQTEQGDIFKITLETDEDMVTEIRLKYFDTVPVAAAMCVLKTGFLFVASEFGNHYLYQIAHLGDDDEEPEFSSAMPLEEGDTFFFQPRPLKNLVLVDELDSLSPILFCQIADLANEDTPQLYVACGRGPRSSLRVLRHGLEVSEMAVSELPGNPNAVWTVRRHIEDEFDAYIIVSFVNATLVLSIGETVEEVTDSGFLGTTPTLSCSLLGDDALVQVYPDGIRHIRADKRVNEWKTPGKKTIVKCAVNQRQVVIALTGGELVYFEMDPSGQLNEYTERKEMSADVVCMSLANVPPGEQRSRFLAVGLVDNTVRIISLDPSDCLQPLSMQALPAQPESLCIVEMGGTEKQDELGERGSIGFLYLNIGLQNGVLLRTVLDPVTGDLSDTRTRYLGSRPVKLFRVRMQGQEAVLAMSSRSWLSYSYQSRFHLTPLSYETLEFASGFASEQCPEGIVAISTNTLRILALEKLGAVFNQVAFPLQYTPRKFVIHPESNNLIIIETDHNAYTEATKAQRKQQMAEEMVEAAGEDERELAAEMAAAFLNENLPESIFGAPKAGNGQWASVIRVMNPIQGNTLDLVQLEQNEAAFSVAVCRFSNTGEDWYVLVGVAKDLILNPRSVAGGFVYTYKLVNNGEKLEFLHKTPVEEVPAAIAPFQGRVLIGVGKLLRVYDLGKKKLLRKCENKHIANYISGIQTIGHRVIVSDVQESFIWVRYKRNENQLIIFADDTYPRWVTTASLLDYDTVAGADKFGNICVVRLPPNTNDEVDEDPTGNKALWDRGLLNGASQKAEVIMNYHVGETVLSLQKTTLIPGGSESLVYTTLSGGIGILVPFTSHEDHDFFQHVEMHLRSEHPPLCGRDHLSFRSYYFPVKNVIDGDLCEQFNSMEPNKQKNVSEELDRTPPEVSKKLEDIRTRYAF
modifications: full-length
4. longCTD + Dox + IFNG: 1 | 3. + Dox longCTD (bait longCTD): 1 | 3. + IFNg + Dox longCTD (bait longCTD): 3 | SUM of PSMS: 15

B7: CDK4 (protein)
chain: ATSRYEPVAEIGVGAYGTVYKARDPHSGHFVALKSVRVPNGGGGGGGLPISTVREVALLRRLEAFEHPNVVRLMDVCATSRTDREIKVTLVFEHVDQDLRTYLDKAPPPGLPAETIKDLMRQFLRGLDFLHANCIVHRDLKPENILVTSGGTVKLADFGLARIYSYQMALTPVVVTLWYRAPEVLLQSTYATPVDMWSVGCIFAEMFRRKPLFCGNSEADQLGKIFDLIGLPPEDDWPRDVSLPRGAFPPRGPRPVQSVVPEMEESGAQLLLEMLTFNPHKRISAFRALQHSYLHKDEGNPE
4. mL1dL2 + Dox + IFNG (LC-MS value per protein co-immunoprecipitated with DUX4-CTD construct mL1dL2 in MB135 myoblasts, + Dox + IFNG, kind of count not given): 3

B8: Q9NQC3 (protein, UniProt Q9NQC3 1-1192, looked up)
chain: MEDLDQSPLVSSSDSPPRPQPAFKYQFVREPEDEEEEEEEEEEDEDEDLEELEVLERKPAAGLSAAPVPTAPAAGAPLMDFGNDFVPPAPRGPLPAAPPVAPERQPSWDPSPVSSTVPAPSPLSAAAVSPSKLPEDDEPPARPPPPPPASVSPQAEPVWTPPAPAPAAPPSTPAAPKRRGSSGSVDETLFALPAASEPVIRSSAENMDLKEQPGNTISAGQEDFPSVLLETAASLPSLSPLSAASFKEHEYLGNLSTVLPTEGTLQENVSEASKEVSEKAKTLLIDRDLTEFSELEYSEMGSSFSVSPKAESAVIVANPREEIIVKNKDEEEKLVSNNILHNQQELPTALTKLVKEDEVVSSEKAKDSFNEKRVAVEAPMREEYADFKPFERVWEVKDSKEDSDMLAAGGKIESNLESKVDKKCFADSLEQTNHEKDSESSNDDTSFPSTPEGIKDRSGAYITCAPFNPAATESIATNIFPLLGDPTSENKTDEKKIEEKKAQIVTEKNTSTKTSNPFLVAAQDSETDYVTTDNLTKVTEEVVANMPEGLTPDLVQEACESELNEVTGTKIAYETKMDLVQTSEVMQESLYPAAQLCPSFEESEATPSPVLPDIVMEAPLNSAVPSAGASVIQPSSSPLEASSVNYESIKHEPENPPPYEEAMSVSLKKVSGIKEEIKEPENINAALQETEAPYISIACDLIKETKLSAEPAPDFSDYSEMAKVEQPVPDHSELVEDSSPDSEPVDLFSDDSIPDVPQKQDETVMLVKESLTETSFESMIEYENKEKLSALPPEGGKPYLESFKLSLDNTKDTLLPDEVSTLSKKEKIPLQMEELSTAVYSNDDLFISKEAQIRETETFSDSSPIEIIDEFPTLISSKTDSFSKLAREYTDLEVSHKSEIANAPDGAGSLPCTELPHDLSLKNIQPKVEEKISFSDDFSKNGSATSKVLLLPPDVSALATQAEIESIVKPKVLVKEAEKKLPSDTEKEDRSPSAIFSAELSKTSVVDLLYWRDIKKTGVVFGASLFLLLSLTVFSIVSVTAYIALALLSVTISFRIYKGVIQAIQKSDEGHPFRAYLESEVAISEELVQKYSNSALGHVNCTIKELRRLFLVDDLVDSLKFAVLMWVFTYVGALFNGLTLLILALISLFSVPVIYERHQAQIDHYLGLANKNVKDAMAKIQAKIPGLKRKAE
modifications: full-length
4. longCTD + Dox + IFNG: 6 | 3. + IFNg + Dox longCTD (bait longCTD): 7 | SUM of PSMS: 23
